Assays:
DR4 (R&D Systems) = target: T1, DR4 (R&D Systems) (UniProt O00220 24-239, limits assumed); assay: ELISA, coated antigen 50 ng/mL
T1 construct: Bought reagent coated at 50 ng/mL; also called TRAIL-R1

DcR1 (R&D Systems) = target: T2, DcR1 (R&D Systems) (UniProt O14798 26-221, limits assumed); assay: ELISA, coated antigen 50 ng/mL
T2 construct: Bought reagent coated at 50 ng/mL; also called TRAIL-R3
T2 sequence (looked up): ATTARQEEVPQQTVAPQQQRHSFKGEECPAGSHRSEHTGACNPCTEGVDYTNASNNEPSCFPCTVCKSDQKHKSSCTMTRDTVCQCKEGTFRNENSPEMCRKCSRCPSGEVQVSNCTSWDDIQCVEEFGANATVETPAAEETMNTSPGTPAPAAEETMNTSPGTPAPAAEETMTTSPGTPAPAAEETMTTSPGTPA

DcR2 (R&D Systems) = target: T3, DcR2 (R&D Systems) (UniProt Q9UBN6 56-211, limits assumed); assay: ELISA, coated antigen 50 ng/mL
T3 construct: Bought reagent coated at 50 ng/mL; also called TRAIL-R4
T3 sequence (looked up): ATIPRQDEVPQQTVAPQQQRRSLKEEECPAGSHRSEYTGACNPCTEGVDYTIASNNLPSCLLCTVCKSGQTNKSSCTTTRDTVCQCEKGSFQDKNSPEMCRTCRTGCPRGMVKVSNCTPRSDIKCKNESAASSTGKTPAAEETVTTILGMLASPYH

Fas (R&D Systems) = target: T4, Fas (R&D Systems) (UniProt P25445 26-173, limits assumed); assay: ELISA, coated antigen 50 ng/mL
T4 construct: Bought reagent coated at 50 ng/mL
T4 sequence (looked up): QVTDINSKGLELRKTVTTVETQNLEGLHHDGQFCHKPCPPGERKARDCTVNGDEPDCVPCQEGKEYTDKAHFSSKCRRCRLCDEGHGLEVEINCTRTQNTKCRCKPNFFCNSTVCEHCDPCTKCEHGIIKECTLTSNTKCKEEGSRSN

FasL (Tebu-bio) = target: T5, FasL (Tebu-bio) (UniProt P48023 134-281, limits assumed); assay: ELISA, coated antigen 100 ng/mL
T5 construct: Bought reagent coated at 100 ng/mL
T5 sequence (looked up): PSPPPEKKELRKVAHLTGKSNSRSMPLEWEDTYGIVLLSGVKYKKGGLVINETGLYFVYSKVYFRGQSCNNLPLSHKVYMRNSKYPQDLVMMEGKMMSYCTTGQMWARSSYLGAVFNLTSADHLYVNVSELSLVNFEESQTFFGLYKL

[1] = target: T6, recombinant TRAIL (R&D Systems) (UniProt P50591 114-281); assay: ELISA, coated antigen 100 ng/mL
T6 construct: Bought reagent, used coated in the ELISA and soluble at 100 ng/mL on H4 cells; also called Apo2L; TRAIL ligand

Measured: binding result

B1: mDR5-05 (antibody, V domains shown)
VH: EVQLQQSGAELVKPGASVKLFCTASGFNIKDTHIHWVKQRPEQGLEWIGRIDPANGNTEYDPKFQGKATIRVDTSSDTAYLQLSSLTSEDTAVHYCARWGTNVYFAYWGQGTSVTVSS
VL: DIQLTQSPAIMSASPGEKVTISCSASSSVSYMYWYQQKPGSSPKPWIYRTSNLASGVPGRFSGSGSGTSYSLTISSMEAEDAATYYCQQYHSYPPTFGGGTKLEIK
notes: mouse IgG1 is implied
no binding (tested: 1 µg/mL): DR4 (R&D Systems) | DcR1 (R&D Systems) | DcR2 (R&D Systems) | Fas (R&D Systems) | FasL (Tebu-bio) | [1]

B2: mDR5-01 (antibody, V domains shown)
VH: EVQLQQSGAEFVKPGASVKLSCTASGFNIKDTFIHWVKQRPEQGLDWIGRIDPANGNTKYDPKFQGKATETTDTSSNTAYLQLSSLTSEDTAVYYCVRGLYTYYFDYWGQGTSVTVSS
VL: DIVLTQSPATLSVTPGDSVSLSCRASQSISNNLHWYQQKSHESPRLLIKFASQSISGIPSRFSGSGSGADFTLIINSVETEDFGMYFCQQGNSWPYTFGGGTKLEIK
no binding (tested: 1 µg/mL): DR4 (R&D Systems) | DcR1 (R&D Systems) | DcR2 (R&D Systems) | Fas (R&D Systems) | FasL (Tebu-bio) | [1]
